Marks after values point to notes of the source that are not given here.

The text below walks through data of patent publication US20200397913A1, “AXL-SPECIFIC ANTIBODY-DRUG CONJUGATES FOR CANCER TREATMENT” (GENMAB A/S, priority 2015, published 2020).

Experiment [1] has as its target T1, human AXL with a cynomolgus monkey extracellular domain (ECD) (Homo sapiens, UniProt P30530, P441T/S191N/S285L/T105A/T112A/T125N/T443A).
T1 construct: aa 1-447); expressed in transfected cells; host or cells: HEK293T
Briefly: Flow cytometry binding to HEK293T cells transfected with human AXL with cynomolgus ECD. The settings on record: at least 3 experiments.

For a further experiment, the target named is T2, human AXL (Homo sapiens, UniProt P30530).
T2 construct: expression constructs for full length human AXL; expressed in transfected cells; host or cells: HEK293T
Briefly: Flow cytometry binding to HEK293T cells transfected with full length human AXL. The note with it: at least 3 experiments.

The target of experiment [2] is Gas6 binding to AXL on A431 cells (Homo sapiens, UniProt P30530). Briefly: Gas6 binding to A431 cells pre-incubated with AXL antibodies. Details: endogenous in cells; host or cells: A431. The settings on record: pre-incubation with 10 μg/mL antibody; control antibody b12. The protocol: Alternatively, A431 cells were pre-incubated with 10 μg/mL AXL antibodies (15 minutes, 4° C.) to assess if the AXL ligand Gas6 could still bind in presence of AXL antibodies. […] After washing three times in PBS/0.1% BSA/0.02% azide, cells were incubated with mouse anti-Gas6 IgG2a (R&D Systems; cat no. MAB885) at 4° C. for 30 min. After washing three times in PBS/0.1% BSA/0.02% azide, cells were incubated with FITC-labelled goat anti-mouse IgG (Dako, Heverlee, Belgium; cat no. F049702) at 4° C. for 30 min in the dark. Next, cells were washed twice in PBS/0.1% BSA/0.02% azide, resuspended in 120 μL PBS/0.1% BSA/0.02% azide and analyzed on a FACS Cantoll (BD Biosciences).
(§1) Binding curves were analyzed using non-linear regression (sigmoidal dose-response with variable slope) using GraphPad Prism V5.04 software (GraphPad Software, San Diego, Calif., USA).
Therefore, binding of Gas6 to A431 cells that had been pre-incubated with 10 μg/mL AXL antibodies was tested as described in Example 2.

Experiment [3] deals with MDA-MB-231 and Calu-1 cells. Briefly: Internalization of cell surface bound HuMab-AXL by flow cytometry. The class given is cell-based, human. The settings on record: 1 hour 4° C, then overnight 37° C versus 4° C. The protocol:
Internalization of cell surface bound HuMab-AXL antibodies to MDA-MB-231 and Calu-1 cells (human lung carcinoma cell line; ATCC, catalognumber HTB-54) was evaluated by flow cytometry. 50,000 cells were seeded in 96-well tissue culture plates and allowed to attach for 6 hrs at 37° C. Plates were incubated at 4° C. for 30 minutes before incubation with serial dilutions of AXL-antibodies (final concentration range 0.0032-10 μg/mL) at 4° C. for 1 hour. Subsequently, the medium was replaced by tissue culture medium without antibody and cells were incubated overnight (16-18 hours) at 37° C. or 4° C. […] Finally, cells were washed twice in PBS/0.1% BSA/0.02% azide, resuspended in 120 μL PBS/0.1% BSA/0.02% azide and analyzed on a FACS Cantoll (BD Biosciences).
as §1

The target of experiment [4] is T3, human AXL with a mouse ECD (Mus musculus, UniProt Q00993, A791T/A867T/C878S/D603E/D853E/E609A/F637Y/G606S/G869S/H824Y/L452V/L825P/L872Q/P881A/R785Q/R828P/S823G/S856P/S873P/T871A/V766A).
T3 construct: aa 1-441); expressed in transfected cells; host or cells: HEK293T
The experiment is described as follows: Flow cytometry binding to HEK293T cells transfected with human AXL with mouse ECD. The settings on record: 0.0024-10 μg/mL.

In experiment [5] the target is T4, AXLECDHis (extracellular domain of human AXL) (Homo sapiens, UniProt P30530).
T4 construct: the extracellular domain (ECD) of human AXL (aa 1-447) with a C-terminal His tag (AXLECDHis); His tag (C); made in house; host or cells: HEK-293F
Briefly: Binding affinity by Bio-Layer Interferometry (Octet). The note with it: for Kdis / Kon: soluble AXLECDHis, 30° C, 1:1 model.

The target in another experiment is T5, AXL on A431 cells (Homo sapiens, UniProt P30530).
T5 construct: AXL-positive A431 cells were incubated; endogenous in cells; host or cells: A431
Briefly: Antibody binding to A431 cells with or without Gas6 pre-incubation. The note with it: for Antibody binding to A431 cells: EC50 w/o Gas6 mean (s.d.): no Gas6 pre-incubation; for Antibody binding to A431 cells: EC50 in presence of Gas6 mean (s.d.): pre-incubation with 10 μg/mL Gas6.

For experiment [6], the target named is T6, human AXL transiently expressed by HEK-293F cells (Homo sapiens, UniProt P30530).
T6 construct: HEK-293F cells transiently expressing full length human AXL; expressed in transfected cells; host or cells: HEK-293F
The experiment is described as follows: Homogeneous antigen specific screening assay (FMAT). The settings on record: binding to human AXL on HEK-293F cells.

T3 sequence (Q00993 19-888 with the stated changes): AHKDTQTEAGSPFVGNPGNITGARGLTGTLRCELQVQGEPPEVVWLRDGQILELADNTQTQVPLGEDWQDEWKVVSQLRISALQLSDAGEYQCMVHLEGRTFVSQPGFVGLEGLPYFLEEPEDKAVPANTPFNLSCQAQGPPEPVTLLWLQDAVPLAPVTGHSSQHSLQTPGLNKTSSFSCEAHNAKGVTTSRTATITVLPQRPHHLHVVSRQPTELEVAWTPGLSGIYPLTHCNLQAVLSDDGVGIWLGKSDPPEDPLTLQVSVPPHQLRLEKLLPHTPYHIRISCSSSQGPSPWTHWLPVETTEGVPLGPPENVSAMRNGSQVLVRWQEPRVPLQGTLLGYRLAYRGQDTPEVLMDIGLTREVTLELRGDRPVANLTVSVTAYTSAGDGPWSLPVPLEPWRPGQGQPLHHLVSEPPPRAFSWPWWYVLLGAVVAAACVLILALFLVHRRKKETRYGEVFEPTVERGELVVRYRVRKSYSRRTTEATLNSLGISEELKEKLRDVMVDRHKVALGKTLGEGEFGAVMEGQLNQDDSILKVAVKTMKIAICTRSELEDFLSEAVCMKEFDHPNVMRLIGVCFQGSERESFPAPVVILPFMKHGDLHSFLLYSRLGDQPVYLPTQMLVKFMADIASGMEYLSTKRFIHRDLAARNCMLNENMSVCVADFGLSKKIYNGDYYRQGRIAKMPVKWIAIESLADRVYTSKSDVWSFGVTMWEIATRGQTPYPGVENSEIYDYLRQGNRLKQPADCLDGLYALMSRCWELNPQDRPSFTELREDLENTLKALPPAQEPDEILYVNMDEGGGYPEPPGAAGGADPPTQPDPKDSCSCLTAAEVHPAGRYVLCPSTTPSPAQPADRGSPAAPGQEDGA

B1: IgG1-AXL-733: human IgG1,κ anti-AXL antibody, VH SEQ ID NO:34, VL SEQ ID NO:35; FN1 domain binding (antibody, V domains shown)
VH: QVQLVESGGGVVQPGRSLRLSCAASGFSFSTYAMHWVRQAPGKGLEWVAVISYDGDNKYSADSVKGRFTISRDNSKNTLYLQMNSLRAEDTAVYYCARGRKLGIDAFDIWGQGTMVTVSS
VL: AIQLTQSPSSLSASVGDRVTITCRASQGISSALAWYQQKPGKAPKLLIYDASSLESGVPSRFSGSGSGTDFTLTISGLQPEDFATYYCQQFNSYPFTFGPGTKVDIK
modifications: homo sapiens
With B1, the “Binding EC50 cynomolgus AXL Average (s.d.)” value in experiment [1] is reported as 0.254 (0.114) μg/mL. The “Binding EC50 human AXL Average (s.d.)” value with human AXL was 0.176 (0.094) μg/mL. In addition, the “Gas6 binding: Maximal binding in presence of AXL antibodies (% of binding in presence of control antibody)” value in experiment [2] was 96%. Moreover, the “internalization of membrane-bound antibody” value in experiment [3] was “internalize”. Further, the “binding to AXL with a mouse ECD” value in experiment [4] was “low”. Further, in experiment [5], the Kdis amounted to 0.0097 s⁻¹ and the Kon was found to be 160000 M⁻¹ s⁻¹. In the experiment with AXL on A431 cells, the “Antibody binding to A431 cells: EC50 w/o Gas6 mean (s.d.)” value was 0.49 (0.51) μg/mL and the “Antibody binding to A431 cells: EC50 in presence of Gas6 mean (s.d.)” value (“Antibody binding … of Gas6 mean (s.d.)” for short) is 0.62 (0.23) μg/mL.

B2: IgG1-AXL-511: human IgG1,κ anti-AXL antibody, VH SEQ ID NO:136, VL SEQ ID NO:140; Ig2 domain binding (antibody, V domains shown)
VH: EVQLLESGGGLVQPGGSLRLSCAASGFTFSSYAMNWVRQAPGKGLEWVSGISGSGGHTYHADSVKGRFTISRDNSKNTLYLQMNSLRAEDTAVYYCAKDRYDILTGYYNLLDYWGQGTLVTVSS
VL: DIQMTQSPSSLSASVGDRVTITCRASQGISSWLAWYQQKPEEAPKSLIYAASSLQSGVPSRFSGSGSGTDFTLTISSLQPEDFATYYCQQYNSYPLTFGGGAKVEIK
modifications: homo sapiens
With B2, the “Gas6 binding: Maximal binding in presence of AXL antibodies (% of binding in presence of control antibody)” value in experiment [2] came to 113%. For the same molecule, the “internalization of membrane-bound antibody” value in experiment [3] is “internalize”. In addition, in experiment [5], the Kdis was found to be 0.0039 s⁻¹ and the Kon is 170000 M⁻¹ s⁻¹. In the experiment with AXL on A431 cells, the “Antibody binding to A431 cells: EC50 w/o Gas6 mean (s.d.)” value is 0.12 (0.11) μg/mL and the “Antibody binding … of Gas6 mean (s.d.)” value is reported as 0.30 (0.31) μg/mL.

B3: IgG1-AXL-187: human IgG1,κ anti-AXL antibody, VH SEQ ID NO:19, VL SEQ ID NO:20 (antibody, V domains shown)
VH: QVPLQQWGAGLLKPSETLSLTCAVYGGSFSGYHWSWIRQPPGKGLEWIGEISHSGRTNYNPSLKSRVTISIDTSKNQFSLKLSSVTAADTAVYYCASFITMIRGTIITHFDYWGQGTLVTVSS
VL: DIQMTQSPSSLSASVGDRVTITCRASQGISSWLAWYQQKPEKAPKSLIYAASSLQSGVPSRFSGSGSGTDFTLTISSLQPEDFATYYCQQYHSYPYTFGQGTKLEIK
modifications: homo sapiens
In experiment [6], B3 came in with a Maximal binding of 2563 Arbitrary units.

B4: IgG1-AXL-140: human IgG1,κ anti-AXL antibody, VH SEQ ID NO:3, VL SEQ ID NO:4 (antibody, V domains shown)
VH: EVQLLESGGGLVQPGGSLRLSCAASGFTFSSYAMTWVRQAPGKGLEWVSAISISGASTFYADSVKGRFTISRDNSKNTLSLQMNSLRAEDTAVYFCRGYSGYVYDAFDIWGQGTMVTVSS
VL: DIQMTQSPSSLSASVGDRVTITCRASQGISNWLAWYQQKPEKAPKSLIYAASSLQSGVPSRFSGSGSGTDFTLTISSLQPEDFATYYCQQYNSYPLTFGGGTKVEIK
modifications: homo sapiens
In experiment [6], B4 registered a Maximal binding of 2889 Arbitrary units.

B5: IgG1-AXL-726: human IgG1,κ anti-AXL antibody, VH SEQ ID NO:31, VL SEQ ID NO:33; FN2 domain binding (antibody, V domains shown)
VH: QVQLQQWGAGLLKPSETLSLTCAIDGGSFSGYYWSWIRQPPGKGLEWIGEISHSGRTNYNPSLKSRVTISIDTSKNQFSLKLSSVAAADTAVYYCARFITMIRGAIITHFDYWGQGALVTVSS
VL: DIQMTQSPSSLSASVGDRVTITCRASQGISSWLAWYQQKPEKAPKSLIYAASSLQSGVPSRFSGSGSGTDFTLTISSLQPEDFATYYCQQYHSYPYTFGQGTKLEIK
modifications: homo sapiens
Regarding B5, the “Binding EC50 cynomolgus AXL Average (s.d.)” value in experiment [1] was 0.349 (0.160) μg/mL. Further, the “Binding EC50 human AXL Average (s.d.)” value in the experiment with human AXL is listed as 0.288 (0.206) μg/mL. In experiment [2], the “Gas6 binding: Maximal binding in presence of AXL antibodies (% of binding in presence of control antibody)” value is given as 98%. In addition, the Maximal binding in experiment [6] stood at 3154 Arbitrary units. Also, in experiment [4], the “binding to AXL with a mouse ECD” value is “not detectable”. In experiment [5], this molecule showed a Kdis of 0.00013 s⁻¹ and a Kon of 240000 M⁻¹ s⁻¹. In the experiment with AXL on A431 cells, the “Antibody binding to A431 cells: EC50 w/o Gas6 mean (s.d.)” value is recorded as 0.32 (0.35) μg/mL and the “Antibody binding … of Gas6 mean (s.d.)” value is on record as 0.55 (0.69) μg/mL.

B6: IgG1-AXL-183-N52Q: point mutant of IgG1-AXL-183, VH SEQ ID NO:17, VL SEQ ID NO:18 (antibody, V domains shown)
VH: QVQLQQWGAGLLKPSETLSLTCAVYGGSFSGYYWSWIRQPPGKGLEWIGEIQQSGSTNYNPSLKSRVTISVDTSKNQFSLKLSSVTAADTSVYYCASGNWDHFFDYWGQGTLVTVSS
VL: DIQMTQSPSSVSASVGDRVTITCRASQGISSWLAWYQHKPGKAPKLLIYATSSLQSGVTSRFSGSGSGTDFTLTISSLQPEDFATYYCQQAKSFPWTFGQGTKVEIK
modifications: homo sapiens
As to B6, the “Binding EC50 cynomolgus AXL Average (s.d.)” value in experiment [1] is 0.324 (0.121) μg/mL. The “Binding EC50 human AXL Average (s.d.)” value in the experiment with human AXL is reported as 0.350 (0.206) μg/mL. In experiment [3], the “internalization of membrane-bound antibody” value is on record as “internalize”. Further, the “binding to AXL with a mouse ECD” value in experiment [4] is “low”. Also, in experiment [5], the “dissociation rate, fold higher than wild-type IgG1-AXL-183” value is given as “approximately 2.5 fold”; the Kdis is 0.001 s⁻¹; the Kon came to 42000 M⁻¹ s⁻¹.

B7: IgG1-AXL-183: human IgG1,κ anti-AXL antibody, VH SEQ ID NO:16, VL SEQ ID NO:18; FN1 domain binding (antibody, V domains shown)
VH: QVQLQQWGAGLLKPSETLSLTCAVYGGSFSGYYWSWIRQPPGKGLEWIGEINQSGSTNYNPSLKSRVTISVDTSKNQFSLKLSSVTAADTSVYYCASGNWDHFFDYWGQGTLVTVSS
VL: DIQMTQSPSSVSASVGDRVTITCRASQGISSWLAWYQHKPGKAPKLLIYATSSLQSGVTSRFSGSGSGTDFTLTISSLQPEDFATYYCQQAKSFPWTFGQGTKVEIK
modifications: homo sapiens
B7: the “Binding EC50 cynomolgus AXL Average (s.d.)” value in experiment [1] is 0.309 (0.086) μg/mL. In addition, in the experiment with human AXL, the “Binding EC50 human AXL Average (s.d.)” value is listed as 0.526 (0.177) μg/mL. Besides, the “Gas6 binding: Maximal binding in presence of AXL antibodies (% of binding in presence of control antibody)” value in experiment [2] turned out to be 115%. Further, in experiment [4], the “binding to AXL with a mouse ECD” value is listed as “low”. In experiment [5], this molecule gave a Kdis of 0.00042 s⁻¹ and a Kon of 41000 M⁻¹ s⁻¹. In the experiment with AXL on A431 cells, the “Antibody binding to A431 cells: EC50 w/o Gas6 mean (s.d.)” value is 0.69 (0.72) μg/mL and the “Antibody binding … of Gas6 mean (s.d.)” value is on record as 1.19 (1.11) μg/mL.
